Molecular target: T1, Protein tyrosine kinase 7 (PTK 7) (UniProt Q13308 31-704)
T1 sequence: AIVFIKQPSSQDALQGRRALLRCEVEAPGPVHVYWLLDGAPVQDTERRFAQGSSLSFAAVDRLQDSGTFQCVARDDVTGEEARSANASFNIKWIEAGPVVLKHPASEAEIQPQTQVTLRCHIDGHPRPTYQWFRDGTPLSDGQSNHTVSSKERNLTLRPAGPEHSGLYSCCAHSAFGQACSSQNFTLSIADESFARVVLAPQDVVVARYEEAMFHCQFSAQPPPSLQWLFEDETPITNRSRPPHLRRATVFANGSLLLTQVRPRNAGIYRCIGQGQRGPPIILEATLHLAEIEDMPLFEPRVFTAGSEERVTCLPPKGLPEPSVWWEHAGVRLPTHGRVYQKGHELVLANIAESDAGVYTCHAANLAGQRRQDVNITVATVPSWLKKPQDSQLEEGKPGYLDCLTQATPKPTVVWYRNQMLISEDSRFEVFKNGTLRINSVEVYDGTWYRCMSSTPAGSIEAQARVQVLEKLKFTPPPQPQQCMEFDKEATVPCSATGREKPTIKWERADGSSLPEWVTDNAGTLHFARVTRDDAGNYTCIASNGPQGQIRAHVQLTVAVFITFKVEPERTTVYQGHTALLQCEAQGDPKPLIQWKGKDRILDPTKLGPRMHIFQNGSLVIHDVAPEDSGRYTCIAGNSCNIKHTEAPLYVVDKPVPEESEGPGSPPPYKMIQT
Experiment: competition: displacement of y-CDs-APT from Fe3O4-cDNA, ratiometric fluorescence; Fe3O4-cDNA (S2) competitor strand; PTK7 0.1-200 ng/mL, LOD 0.016 ng/mL; Buffer, salt and pH not given in material; probe hybridisation 25 °C, 60 min; DNase I amplification
Settings: protein: recombinant; label: y-CDs (emission 580 nm); assayed pre-hybridised to partly complementary cDNA S2 on Fe3O4; PTK7 displaces S2

Binder: ATCTAACTGCTGCGCCGCCGGGAAAATACTGTACGGTTAGA (ssDNA, conjugated to yellow carbon dots (y-CDs); attachment end not stated) [APT (PTK7 aptamer), as y-CDs-APT]
- binding result: binds

From publication PMC7885398, “Multi-carbon dots and aptamer based signal amplification ratiometric fluorescence probe for protein tyrosine kinase 7 detection”
